From paper PMC10435522, “Molecular insights into recognition of GUCY2C by T-cell engaging bispecific antibody anti-GUCY2CxCD3” (Scientific Reports, 2023) come the findings set out here.

First the molecules themselves.
T1: GUCY2C ECD peptide 19 (68-NSGDCRSSTCEGLDLLRKIS-87) (human)
T1 construct: human GUCY2C residues 68-87; numbers count on: the mature protein (91-110 of P25092); In the crystal the peptide holds the disulfide bond Cys72-Cys77; also called GUCY2C-peptide; 68GUCY2C-peptide87; source: synthetic peptide (New England Peptide arrays for the DELFIA; chemically synthesized for the crystal)
T1 chain: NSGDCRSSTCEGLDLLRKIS

B1: GUCY2C-1608 (IgG version of PF-07062119) (antibody, V domains shown)
VH: EVQLVESGGGLVQPGGSLRLSCAASGFTFSSYWMHWVRQAPGKGLEWIGEIKPSNELTNVHEKFKDRFTISVDKAKNSAYLQMNSLRAEDTAVYYCTRTITTTEGYWFFDVWGQGTLVTVSS
VL: DIQLTQSPSSLSASVGDRVTITCRASESVDYYGSSLLQWYQQKPGKAPKLLIYAASKLASGVPSRFSGSGSGTDFTLTISSLQPEDFATYYCQQTRKAYTFGQGTKLEIK
notes: as the VH in aGUCY2C-scFv; as the VL in aGUCY2C-scFv; IgG detected with an anti-human IgG secondary antibody; also called GUGY2C-1608; Ab GUCY2C-1608
B2: anti-GUCY2C single chain Fv (aGUCY2C-scFv) fragment of PF-07062119 (scFv, V domains shown)
VH: EVQLVESGGGLVQPGGSLRLSCAASGFTFSSYWMHWVRQAPGKGLEWIGEIKPSNELTNVHEKFKDRFTISVDKAKNSAYLQMNSLRAEDTAVYYCTRTITTTEGYWFFDVWGQGTLVTVSS
VL: DIQLTQSPSSLSASVGDRVTITCRASESVDYYGSSLLQWYQQKPGKAPKLLIYAASKLASGVPSRFSGSGSGTDFTLTISSLQPEDFATYYCQQTRKAYTFGQGTKLEIK
notes: Fc removed with AcTEV protease; also called anti-GUCY2C-scFv; source: Expi293F, transfected (with kifunensine), purified (MAb Select Sure, Superdex 200 SEC, TEV cleavage); not shown: Fc, C-terminal, cleaved

The first test concerns the target PF-07062119, anti-GUCY2CxCD3 bispecific antibody. The test can be described thus: flow cytometry of yeast-displayed GUCY2C ECD. To be noted: 2 independent experiments, triplicate samples; parent: est. 36; read off a plot. (In general: Flow cytometry measures light scatter and fluorescence of single cells or particles in a stream.)
As to “human GUCY2C ECD displayed on yeast (CID1814) (from UniProt P25092) D81E”, the response was determined as 33. For “human GUCY2C ECD displayed on yeast (CID1814) (from UniProt P25092) I66L”, the response stood at 34. Turning to “human GUCY2C ECD displayed on yeast (CID1814) (from UniProt P25092) K85Q”, the response amounted to 50. For the molecule “human GUCY2C ECD displayed on yeast (CID1814) (from UniProt P25092) L83I”, the response turned out to be 28. As to “human GUCY2C ECD displayed on yeast (CID1814) (from UniProt P25092) R84K”, the response stood at 48. On the same count and under the same terms, under “human GUCY2C ECD displayed on yeast (CID1814) (from UniProt P25092) S15N” stands 21; under “human GUCY2C ECD displayed on yeast (CID1814) (from UniProt P25092) S62F”, 30. On the same count and under the same terms, the figure for “human GUCY2C ECD displayed on yeast (CID1814) (from UniProt P25092) S74T” is 41.

For “human GUCY2C ECD displayed on yeast (CID1814) (from UniProt P25092) S87F”, the response was determined as 32.

Staying with this test, now noted: 2 independent experiments, triplicate samples; parent: est. 130; read off a plot.
On to “human GUCY2C ECD displayed on yeast (CID1814) (from UniProt P25092) A331E; L335I”, for which the response worked out at 110. On to “human GUCY2C ECD displayed on yeast (CID1814) (from UniProt P25092) N21D; A23D; D71G”, for which the response came out at 43. “human GUCY2C ECD displayed on yeast (CID1814) (from UniProt P25092) Q210R; E230A; D238T; E259R”: the response is 220. On to “human GUCY2C ECD displayed on yeast (CID1814) (from UniProt P25092) S163T; G403S”, for which the response amounted to 96. Take “human GUCY2C ECD displayed on yeast (CID1814) (from UniProt P25092) Y109V; T133N”: the response is 97. Still for that read-out and setting: the figure for “human GUCY2C ECD displayed on yeast (CID1814) (from UniProt P25092) human 153-166 substituted with chicken residues 151-164” is 37. With “human GUCY2C ECD displayed on yeast (CID1814) (from UniProt P25092) human 172-178 substituted with chicken residues 170-176”, the response was found to be 140. Same read-out and setting: the figure for “human GUCY2C ECD displayed on yeast (CID1814) (from UniProt P25092) human 198-206 substituted with chicken residues 196-204” is 160; for “human GUCY2C ECD displayed on yeast (CID1814) (from UniProt P25092) human 207-217 substituted with chicken residues 205-215” it is 150. “human GUCY2C ECD displayed on yeast (CID1814) (from UniProt P25092) human 238-243 substituted with chicken residues 236-241”: the response was found to be 110. Take “human GUCY2C ECD displayed on yeast (CID1814) (from UniProt P25092) human 259-269 substituted with chicken residues 257-267”: the response is 80. Regarding “human GUCY2C ECD displayed on yeast (CID1814) (from UniProt P25092) human 363-376 substituted with chicken residues 361-374”, the response is 65.

Staying with this test, now noted: 2 independent experiments, triplicate samples; read off a plot.
As for “chicken GUCY2C ECD displayed on yeast (CID1818) (from UniProt E1BZE2) chicken residues 70-84 replaced by human 73-87”, the response came to 11. “chicken GUCY2C ECD displayed on yeast (CID1818) (from UniProt E1BZE2) chicken residues 71-89 replaced by human 74-92” showed a response of 14.

For a further test, the target named is T1, GUCY2C ECD peptide 19 …. The test can be described thus: ELISA; DELFIA competition ELISA; human GUCY2C ECD coated at 1 ug/ml; GUCY2C-1608 at EC80 mixed with peptide 19 serially diluted 1:3 from 10 ug/ml; anti-human IgG europium detection. To be noted: both partners purified. (In an ELISA, binding on a coated surface is turned into a signal by an enzyme label.)
For B1, the binding result is recorded as “binds”.

The target in a further test is T2, human GUCY2C ECD, purified (from HuGUCY2C_ECD_TEV_muIgG2amutFc_Flag) (human, UniProt P25092).
T2 construct: human GUCY2C extracellular domain, residues 1-407; numbers count on: the mature protein (24-430 of P25092); For the crystal the complex with the scFv was treated with endoglycosidase H. The limits 1-407 are stated for the crystallised ECD; also called full GUCY2C ECD; full length GUCY2C-ECD; source: Expi293F, transfected (with kifunensine), purified (MAb Select Sure, Superdex 200 SEC, TEV …)
T2 sequence (P25092 24-407): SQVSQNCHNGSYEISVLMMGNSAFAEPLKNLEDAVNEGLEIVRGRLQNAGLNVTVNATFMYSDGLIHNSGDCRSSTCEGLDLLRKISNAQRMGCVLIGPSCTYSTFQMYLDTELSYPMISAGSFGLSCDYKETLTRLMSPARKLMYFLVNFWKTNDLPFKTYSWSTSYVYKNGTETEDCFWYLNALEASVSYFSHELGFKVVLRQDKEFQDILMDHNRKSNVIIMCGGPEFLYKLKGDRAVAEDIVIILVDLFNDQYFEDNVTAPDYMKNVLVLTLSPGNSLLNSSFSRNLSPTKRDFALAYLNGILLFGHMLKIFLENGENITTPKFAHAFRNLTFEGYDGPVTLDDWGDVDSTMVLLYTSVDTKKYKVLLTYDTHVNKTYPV
The test is described as above. To be noted: both partners purified.
With B1, the binding result is “binds”.

The target of the next test is T1, GUCY2C ECD peptide 19 …. The test can be described thus: crystal structure; aGUCY2C-scFv with GUCY2C-peptide 68-87, complex formed at 1:1.2 molar ratio; 1.6 A; two complexes in the asymmetric unit. To be noted: both partners purified.
Turning to B2, the binding result is reported as “binds”.

Another test addresses T2, human GUCY2C ECD, purified (from …). Put plainly: crystal structure; aGUCY2C-scFv with GUCY2C-ECD (1-407), mixed at 1.2:1, treated with endoglycosidase H, purified by SEC; 3.52 A; one complex in the asymmetric unit. To be noted: both partners purified. (In gel filtration, larger molecules generally elute earlier.)
As for B2, the binding result was “binds”.
